Legend:
[1] = target: T1, P3mS; test: two-hybrid library CC1;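 also: natural log of median RNA to DNA barcode read ratio; higher means stronger binding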
T1 chain: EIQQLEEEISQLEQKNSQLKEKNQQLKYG

[2] = target: T2, P4; test: two-hybrid library CC1; conditions: mean of both orientations;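 also: natural log of median RNA to DNA barcode read ratio; higher means stronger binding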
T2 chain: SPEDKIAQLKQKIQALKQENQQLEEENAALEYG

[3] = target: T3, P4mS; test: two-hybrid library CC1; conditions: mean of both orientations;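 also: natural log of median RNA to DNA barcode read ratio; higher means stronger binding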
T3 chain: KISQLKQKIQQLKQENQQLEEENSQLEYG

[4] = target: T4, P5SC1; test: two-hybrid library CC1; conditions: mean of both orientations;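 also: natural log of median RNA to DNA barcode read ratio; higher means stronger binding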
T4 chain: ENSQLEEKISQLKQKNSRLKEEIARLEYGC

[5] = target: T5, P5SC2; test: two-hybrid library CC1; conditions: mean of both orientations;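 also: natural log of median RNA to DNA barcode read ratio; higher means stronger binding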
T5 chain: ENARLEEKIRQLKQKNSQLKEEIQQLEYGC

[6] = target: T6, P5; test: two-hybrid library CC1; conditions: mean of both orientations;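 also: natural log of median RNA to DNA barcode read ratio; higher means stronger binding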
T6 chain: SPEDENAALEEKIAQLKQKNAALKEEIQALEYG

[7] = target: T7, P5mS; test: two-hybrid library CC1; conditions: mean of both orientations
T7 chain: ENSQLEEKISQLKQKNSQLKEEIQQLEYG

[8] = target: T8, P6SC1; test: two-hybrid library CC1; conditions: mean of both orientations
T8 chain: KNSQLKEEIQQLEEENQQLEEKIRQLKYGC

[9] = target: T9, P6SC2; test: two-hybrid library CC1; conditions: mean of both orientations
T9 chain: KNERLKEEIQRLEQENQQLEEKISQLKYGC

[10] = target: T10, P6; test: two-hybrid library CC1; conditions: mean of both orientations
T10 chain: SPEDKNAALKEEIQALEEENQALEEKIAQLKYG

[11] = target: T11, P6mS; test: two-hybrid library CC1; conditions: mean of both orientations
T11 chain: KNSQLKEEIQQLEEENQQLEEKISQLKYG

[12] = target: T12, P7; test: two-hybrid library CC1; conditions: mean of both orientations
T12 chain: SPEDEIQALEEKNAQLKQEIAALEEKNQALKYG

[13] = target: T13, P7mS; test: two-hybrid library CC1; conditions: mean of both orientations
T13 chain: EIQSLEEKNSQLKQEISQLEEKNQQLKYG

[14] = target: T14, P8; test: two-hybrid library CC1; conditions: mean of both orientations
T14 chain: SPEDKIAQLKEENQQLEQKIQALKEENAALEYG

[15] = target: T15, P8mS; test: two-hybrid library CC1; conditions: mean of both orientations
T15 chain: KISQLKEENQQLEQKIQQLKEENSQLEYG

[16] = target: T16, P9; test: two-hybrid library CC1; conditions: mean of both orientations
T16 chain: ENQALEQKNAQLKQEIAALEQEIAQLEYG

[17] = target: T17, 4H1845-bH; test: two-hybrid library CCNG1
T17 chain: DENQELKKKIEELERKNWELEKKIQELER

[18] = target: T18, 4H2442-bH; test: two-hybrid library CCNG1
T18 chain: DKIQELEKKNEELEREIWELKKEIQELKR

[19] = target: T19, 4H2576-bH; test: two-hybrid library CCNG1
T19 chain: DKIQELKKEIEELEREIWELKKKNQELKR

[20] = target: T20, 4H2610-bH; test: two-hybrid library CCNG1
T20 chain: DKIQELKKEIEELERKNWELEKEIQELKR

[21] = target: T21, 4H2618-bH; test: two-hybrid library CCNG1
T21 chain: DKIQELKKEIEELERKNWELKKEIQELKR

[22] = target: T22, 4H2667-bH; test: two-hybrid library CCNG1
T22 chain: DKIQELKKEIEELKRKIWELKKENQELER

[23] = target: T23, 4H2697-bH; test: two-hybrid library CCNG1
T23 chain: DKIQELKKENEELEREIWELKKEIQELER

[24] = target: T24, 4H2717-bN; test: two-hybrid library CCNG1
T24 chain: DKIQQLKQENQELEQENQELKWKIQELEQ

[25] = target: T25, 4H2729-bH; test: two-hybrid library CCNG1
T25 chain: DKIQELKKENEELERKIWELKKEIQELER

[26] = target: T26, 4H3112-bH; test: two-hybrid library CCNG1
T26 chain: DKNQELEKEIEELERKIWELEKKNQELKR

[27] = target: T27, 4H3185-bH; test: two-hybrid library CCNG1
T27 chain: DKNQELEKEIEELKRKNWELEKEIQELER

[28] = target: T28, 4H3189-bH; test: two-hybrid library CCNG1
T28 chain: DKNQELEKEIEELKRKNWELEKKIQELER

[29] = target: T29, 4H331-bH; test: two-hybrid library CCNG1
T29 chain: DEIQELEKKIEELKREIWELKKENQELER

[30] = target: T30, 4H3354-bH; test: two-hybrid library CCNG1
T30 chain: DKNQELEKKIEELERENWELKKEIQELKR

[31] = target: T31, 4H338-bH; test: two-hybrid library CCNG1
T31 chain: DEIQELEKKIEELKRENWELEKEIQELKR

[32] = target: T32, 4H3427-bH; test: two-hybrid library CCNG1
T32 chain: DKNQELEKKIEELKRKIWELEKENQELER

[33] = target: T33, 4H3606-bH; test: two-hybrid library CCNG1
T33 chain: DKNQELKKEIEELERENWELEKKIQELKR

[34] = target: T34, 4H370-bH; test: two-hybrid library CCNG1
T34 chain: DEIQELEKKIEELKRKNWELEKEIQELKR

[35] = target: T35, 4H3782-bH; test: two-hybrid library CCNG1
T35 chain: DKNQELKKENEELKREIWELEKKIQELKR

[36] = target: T36, 4H3843-bH; test: two-hybrid library CCNG1
T36 chain: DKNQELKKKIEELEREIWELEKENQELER

[37] = target: T37, 4H3855-bH; test: two-hybrid library CCNG1
T37 chain: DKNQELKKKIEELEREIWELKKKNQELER

[38] = target: T38, 4H4001-bH; test: two-hybrid library CCNG1
T38 chain: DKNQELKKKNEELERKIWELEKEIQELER

[39] = target: T39, 4H4001-bN; test: two-hybrid library CCNG1
T39 chain: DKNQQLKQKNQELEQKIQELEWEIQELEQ

[40] = target: T40, 4H454-bH; test: two-hybrid library CCNG1
T40 chain: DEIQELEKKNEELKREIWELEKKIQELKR

[41] = target: T41, 4H462-bH; test: two-hybrid library CCNG1
T41 chain: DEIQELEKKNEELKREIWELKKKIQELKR

[42] = target: T42, 4H568-bH; test: two-hybrid library CCNG1
T42 chain: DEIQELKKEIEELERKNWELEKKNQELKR

[43] = target: T43, 4H575-bA; test: two-hybrid library CCNG1
T43 chain: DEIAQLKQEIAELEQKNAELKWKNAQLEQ

[44] = target: T44, 4H607-bH; test: two-hybrid library CCNG1
T44 chain: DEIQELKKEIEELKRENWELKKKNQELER

[45] = target: T45, 4H687-bH; test: two-hybrid library CCNG1
T45 chain: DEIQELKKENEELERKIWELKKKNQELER

[46] = target: T46, 4H717-bH; test: two-hybrid library CCNG1
T46 chain: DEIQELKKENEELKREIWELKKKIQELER

[47] = target: T47, 4H72-bH; test: two-hybrid library CCNG1
T47 chain: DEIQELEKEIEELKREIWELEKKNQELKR

[48] = target: T48, 4H754-bH; test: two-hybrid library CCNG1
T48 chain: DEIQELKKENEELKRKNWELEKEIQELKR

[49] = target: T49, 4H797-bH; test: two-hybrid library CCNG1
T49 chain: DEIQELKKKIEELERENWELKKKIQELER

[50] = target: T50, 4H883-bH; test: two-hybrid library CCNG1
T50 chain: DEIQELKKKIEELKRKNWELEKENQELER

[51] = target: T51, 4H908-bH; test: two-hybrid library CCNG1
T51 chain: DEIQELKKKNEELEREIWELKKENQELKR

[52] = target: T52, 4H918-bH; test: two-hybrid library CCNG1
T52 chain: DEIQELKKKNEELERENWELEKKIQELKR

[53] = target: T53, 4H918-bN; test: two-hybrid library CCNG1
T53 chain: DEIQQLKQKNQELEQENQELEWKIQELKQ

[54] = target: T54, 4H953-bH; test: two-hybrid library CCNG1
T54 chain: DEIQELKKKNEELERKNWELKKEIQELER

[55] = target: T55, 4H967-bH; test: two-hybrid library CCNG1
T55 chain: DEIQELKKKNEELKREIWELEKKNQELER

[56] = target: T56, O7-bN; test: two-hybrid library CCNG1
T56 chain: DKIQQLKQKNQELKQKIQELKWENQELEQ

EIQQLEEEISQLEQKNSQLKEKNQQLKYG [P3mS] showed an interaction score [1] of -3.24, an interaction score [2] of -0.0449 and an interaction score [3] of 0.221. For the same binder, the interaction score [4] was -2.77, the interaction score [5] was -2.78 and the interaction score [6] was -2.93. It also gave an interaction score [7] of -2.69, an interaction score [8] of -2.8 and an interaction score [9] of -2.5. It also gave an interaction score [10] of -2.8, an interaction score [11] of -2.74 and an interaction score [12] of -2.64. For the same binder, the interaction score [13] was -2.96, the interaction score [14] was -2.54 and the interaction score [15] was -2.87. For the same binder, the interaction score [16] was -2.34.

With DENQELKKKIEELERKNWELEKKIQELER [4H1845-bH] the interaction score [17] was 0.142, the interaction score [18] was -0.237 and the interaction score [19] was -1.7. It also gave an interaction score [20] of -0.549, an interaction score [21] of -1.52 and an interaction score [22] of 0.349. For the same binder, the interaction score [23] was 0.106, the interaction score [24] was -0.601 and the interaction score [25] was 0.473. The interaction score [26] was -0.698, the interaction score [27] was 0.639 and the interaction score [28] was 0.462. The interaction score [29] was -1.2, the interaction score [30] was 0.334 and the interaction score [31] was -0.243. It also gave an interaction score [32] of -0.323, an interaction score [33] of 0.808 and an interaction score [34] of -0.319. The interaction score [35] was 0.165, the interaction score [36] was -0.224 and the interaction score [37] was -0.295. The interaction score [38] was -1.03, the interaction score [39] was -0.805 and the interaction score [40] was -0.0899. For the same binder, the interaction score [41] was -0.599, the interaction score [42] was -0.447 and the interaction score [43] was -1.1. The interaction score [44] was -2.75, the interaction score [45] was -0.46 and the interaction score [46] was 0.319. For the same binder, the interaction score [47] was 0.142, the interaction score [48] was 0.391 and the interaction score [49] was 0.175. For the same binder, the interaction score [50] was 0.0604, the interaction score [51] was -1 and the interaction score [52] was -0.512. The interaction score [53] was -1.11, the interaction score [54] was -0.598 and the interaction score [55] was -0.511. It also gave an interaction score [56] of -0.332.
